The results in this text go back to patent US20110142849A1.

In this assay the target is recombinant human Pcsk9 (aa 31-692) with C-terminal his6 tag (human) (UniProt Q8NBP7). The assay can be described thus: TR-FRET, disruption of hLDL-R-Eu and hPcsk9-AF.
Chain of recombinant human Pcsk9 (aa 31-692) with C-terminal his6 tag (human) (Q8NBP7 other isoform, or with tags, fused parts or gaps limits assumed, form in doubt): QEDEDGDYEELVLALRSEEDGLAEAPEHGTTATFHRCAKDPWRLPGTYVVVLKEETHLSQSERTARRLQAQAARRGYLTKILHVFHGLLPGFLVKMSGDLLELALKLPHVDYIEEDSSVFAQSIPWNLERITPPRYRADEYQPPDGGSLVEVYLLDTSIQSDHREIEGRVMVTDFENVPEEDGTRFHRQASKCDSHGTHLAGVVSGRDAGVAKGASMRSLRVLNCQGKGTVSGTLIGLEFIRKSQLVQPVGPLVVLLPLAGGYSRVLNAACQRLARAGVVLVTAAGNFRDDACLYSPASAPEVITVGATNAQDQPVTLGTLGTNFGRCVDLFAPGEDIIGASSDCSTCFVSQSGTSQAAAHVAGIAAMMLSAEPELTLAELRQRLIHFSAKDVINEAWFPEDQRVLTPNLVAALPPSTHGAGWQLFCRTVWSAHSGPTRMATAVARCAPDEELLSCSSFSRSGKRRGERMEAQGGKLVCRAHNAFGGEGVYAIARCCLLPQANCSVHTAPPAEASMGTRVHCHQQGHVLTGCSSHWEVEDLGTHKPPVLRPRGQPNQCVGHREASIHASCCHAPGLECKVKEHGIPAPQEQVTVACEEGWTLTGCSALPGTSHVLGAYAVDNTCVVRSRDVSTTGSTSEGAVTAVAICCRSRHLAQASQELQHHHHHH

One may read the IC50 as the concentration that gives 50% inhibition. With EGF-A peptide, the IC50 amounted to 2500 nM.
